According to publication PMC6415871:

Columns and labels:
[1] = molecular target: PCV2-His-ΔN45 capsid protein (porcine circovirus type 2) (UniProt O56129); test: crystal structure; PCV2-His-ΔN45 at ~12 mg/ml, crystals from 2 M ammonium sulfate, 0.1 M citric acid pH 4.6; one icosahedral particle per asymmetric unit; 2.8 Å
[2] = molecular target: full-length PCV2 capsid protein (porcine circovirus type 2) (UniProt O56129); test: cryo-EM structure; in vitro assembled full-length PCV2 VLP, 300 kV Titan Krios, icosahedral reconstruction at 4.12 Å

PCV2-His-ΔN45 capsid protein (from UniProt O56129 45-233) (domain or fragment)
stoichiometry N [1]: 60 subunits

full-length PCV2 capsid protein (from UniProt O56129 1-233) (natural protein)
stoichiometry N [2]: 60 subunits
